Results on 94 variants are retold here after the supplement of paper PMC10567573.

To fix the notation:
B1: JUNB (parent)
chain: FVKALDDLHKMNHVTPPNVSLGAT
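Further: lentivirally expressed fusions sorted by FACS into six bins by GFP to DsRed ratio, PSI derived from sequencing read proportions per bin multiplied by bin number.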

This series covers variants of B1. In words: protein stability index of a GFP-peptide fusion (GPS, HEK-293T) (PSI 1-6); higher = more stable. The following applies: c terminus: a fixed tail appended.
In the case of FVKALDDLHKMNHVTPPNCSLGAT [V19C], the protein stability index came to 2.11.
Under FVKALDDLHKMNHVTPPNDSLGAT [V19D] stands 1.94.
Under FVKALDDLHKMNHVTPPNESLGAT [V19E] stands 1.67; under FVKALDDLHKMNHVTPPNASLGAT [V19A], 1.77; under FVKALDDLHKMNHVTPPNFSLGAT [V19F], 1.43.
For FVKALDDLHKMNHVTEPNVSLGAT [P16E], the protein stability index stood at 2.55.
On to FVKALDDLHKMNHVTNPNVSLGAT [P16N], for which the protein stability index turned out to be 1.14.
Under FVKALDDLHKMNHVTKPNVSLGAT [P16K] stands 1.79; under FVKALDDLHKMNHVTTPNVSLGAT [P16T], 2.34; under FVKALDDLHKMNHVTYPNVSLGAT [P16Y], 1.64.
Turning to FVKALDDLHKMNHVTDPNVSLGAT [P16D], the protein stability index was found to be 1.76.
Next, FVKALDDLHKMNHVTVPNVSLGAT [P16V]: 1.86; FVKALDDLHKMNHVTFPNVSLGAT [P16F]: 2.55; FVKALDDLHKMNHVTCPNVSLGAT [P16C]: 2.48.
Next, FVKALDDLHKMNHVTRPNVSLGAT [P16R]: 1.6; FVKALDDLHKMNHVTMPNVSLGAT [P16M]: 1.68.
Next, FVKALDDLHKMNHVTLPNVSLGAT [P16L]: 1.53.
FVKALDDLHKMNHVTSPNVSLGAT [P16S]: the protein stability index is 1.78.
Next, FVKALDDLHKMNHVTWPNVSLGAT [P16W]: 1.92; FVKALDDLHKMNHVTQPNVSLGAT [P16Q]: 2.11.
Under FVKALDDLHKMNHVTHPNVSLGAT [P16H] stands 1.81.
On to FVKALDDLHKMNHVTIPNVSLGAT [P16I], for which the protein stability index is 1.58.
Next, FVKALDDLHKMNHVTGPNVSLGAT [P16G]: 1.9.
Under FVKALDDLHKMNHVTAPNVSLGAT [P16A] stands 1.94; under FVKALDDLHKMNHVTPINVSLGAT [P17I], 1.81; under FVKALDDLHKMNHVTPKNVSLGAT [P17K], 2.64.
Regarding FVKALDDLHKMNHVTPYNVSLGAT [P17Y], the protein stability index is 3.73.
Under FVKALDDLHKMNHVTPWNVSLGAT [P17W] stands 3.22.
Regarding FVKALDDLHKMNHVTPLNVSLGAT [P17L], the protein stability index was 1.37.
Under FVKALDDLHKMNHVTPVNVSLGAT [P17V] stands 1.71.
Next, FVKALDDLHKMNHVTPGNVSLGAT [P17G]: 1.56; FVKALDDLHKMNHVTPFNVSLGAT [P17F]: 2.56.
Under FVKALDDLHKMNHVTPANVSLGAT [P17A] stands 1.89; under FVKALDDLHKMNHVTPMNVSLGAT [P17M], 2.35.
Turning to FVKALDDLHKMNHVTPENVSLGAT [P17E], the protein stability index came out at 1.48.
FVKALDDLHKMNHVTPTNVSLGAT [P17T]: the protein stability index was 1.62.
Under FVKALDDLHKMNHVTPDNVSLGAT [P17D] stands 1.97; under FVKALDDLHKMNHVTPCNVSLGAT [P17C], 2.08.
Next, FVKALDDLHKMNHVTPRNVSLGAT [P17R]: 1.44; FVKALDDLHKMNHVTPNNVSLGAT [P17N]: 1.8.
Under FVKALDDLHKMNHVTPQNVSLGAT [P17Q] stands 2.21.
As to FVKALDDLHKMNHVTPHNVSLGAT [P17H], the protein stability index worked out at 1.89.
FVKALDDLHKMNHVTPSNVSLGAT [P17S]: the protein stability index was determined as 1.83.
Next, FVKALDDLHKMNHVHPPNVSLGAT [T15H]: 2.12.
Next, FVKALDDLHKMNHVKPPNVSLGAT [T15K]: 2.09.
Next, FVKALDDLHKMNHVCPPNVSLGAT [T15C]: 2.06; FVKALDDLHKMNHVFPPNVSLGAT [T15F]: 1.69; FVKALDDLHKMNHVEPPNVSLGAT [T15E]: 1.45.
For FVKALDDLHKMNHVGPPNVSLGAT [T15G], the protein stability index came to 2.04.
Consider FVKALDDLHKMNHVLPPNVSLGAT [T15L], for which the protein stability index is 2.03.
Under FVKALDDLHKMNHVPPPNVSLGAT [T15P] stands 2.18; under FVKALDDLHKMNHVQPPNVSLGAT [T15Q], 2.06.
Under FVKALDDLHKMNHVAPPNVSLGAT [T15A] stands 2.79; under FVKALDDLHKMNHVMPPNVSLGAT [T15M], 2.3.
In the case of FVKALDDLHKMNHVIPPNVSLGAT [T15I], the protein stability index is 1.59.
Next, FVKALDDLHKMNHVVPPNVSLGAT [T15V]: 1.6; FVKALDDLHKMNHVRPPNVSLGAT [T15R]: 2.24; FVKALDDLHKMNHVWPPNVSLGAT [T15W]: 1.51.
With FVKALDDLHKMNHVYPPNVSLGAT [T15Y], the protein stability index was determined as 1.67.
Under FVKALDDLHKMNHVSPPNVSLGAT [T15S] stands 1.92; under FVKALDDLHKMNHVNPPNVSLGAT [T15N], 1.84.
Next, FVKALDDLHKMNHVDPPNVSLGAT [T15D]: 1.9; FVKALDDLHKMNHVTPPSVSLGAT [N18S]: 2.61.
With FVKALDDLHKMNHVTPPMVSLGAT [N18M], the protein stability index came to 2.5.
Regarding FVKALDDLHKMNHVTPPKVSLGAT [N18K], the protein stability index is 1.75.
Next, FVKALDDLHKMNHVTPPLVSLGAT [N18L]: 1.93.
Next, FVKALDDLHKMNHVTPPDVSLGAT [N18D]: 1.73; FVKALDDLHKMNHVTPPAVSLGAT [N18A]: 1.32.
Next, FVKALDDLHKMNHVTPPEVSLGAT [N18E]: 1.62; FVKALDDLHKMNHVTPPWVSLGAT [N18W]: 2.86; FVKALDDLHKMNHVTPPCVSLGAT [N18C]: 1.69.
On to FVKALDDLHKMNHVTPPIVSLGAT [N18I], for which the protein stability index is 1.4.
Next, FVKALDDLHKMNHVTPPVVSLGAT [N18V]: 1.63.
Next, FVKALDDLHKMNHVTPPQVSLGAT [N18Q]: 2.49.
Under FVKALDDLHKMNHVTPPHVSLGAT [N18H] stands 1.62; under FVKALDDLHKMNHVTPPYVSLGAT [N18Y], 1.73; under FVKALDDLHKMNHVTPPFVSLGAT [N18F], 2.41.
For FVKALDDLHKMNHVTPPRVSLGAT [N18R], the protein stability index came out at 3.67.
Next, FVKALDDLHKMNHVTPPGVSLGAT [N18G]: 1.73.
Next, FVKALDDLHKMNHVTPPTVSLGAT [N18T]: 1.47; FVKALDDLHKMNHNTPPNVSLGAT [V14N]: 1.89; FVKALDDLHKMNHHTPPNVSLGAT [V14H]: 1.78.
Under FVKALDDLHKMNHTTPPNVSLGAT [V14T] stands 1.82.
As to FVKALDDLHKMNHKTPPNVSLGAT [V14K], the protein stability index was 1.53.
On to FVKALDDLHKMNHQTPPNVSLGAT [V14Q], for which the protein stability index stood at 2.26.
Next, FVKALDDLHKMNHRTPPNVSLGAT [V14R]: 1.84; FVKALDDLHKMNHLTPPNVSLGAT [V14L]: 1.88; FVKALDDLHKMNHITPPNVSLGAT [V14I]: 1.82.
Under FVKALDDLHKMNHGTPPNVSLGAT [V14G] stands 2.37; under FVKALDDLHKMNHWTPPNVSLGAT [V14W], 2.7; under FVKALDDLHKMNHPTPPNVSLGAT [V14P], 1.46.
FVKALDDLHKMNHSTPPNVSLGAT [V14S]: the protein stability index turned out to be 1.43.
Under FVKALDDLHKMNHMTPPNVSLGAT [V14M] stands 1.51; under FVKALDDLHKMNHYTPPNVSLGAT [V14Y], 1.19.
